Publication PMC5902653 (The Analyst, 2018)
Read-outs that look alike come from different tables or passages of the source. *: point of attachment. FITC = O=C1OC2(c3ccc(O)cc3Oc3cc(O)ccc32)c2ccc(NC(=S)*)cc21; βAla = NCCC(=O)O

B1: c-Myb peptide, FITC labeled (peptide)
peptide: {FITC-βAla}-KEKRIKELELLLMSTENELKGQQALW-NH2
SMILES: CC[C@H](C)[C@H](NC(=O)[C@H](CCCNC(=N)N)NC(=O)[C@H](CCCCN)NC(=O)[C@H](CCC(=O)O)NC(=O)[C@H](CCCCN)NC(=O)CCNC(=S)Nc1ccc2c(c1)C(=O)OC21c2ccc(O)cc2Oc2cc(O)ccc21)C(=O)N[C@@H](CCCCN)C(=O)N[C@@H](CCC(=O)O)C(=O)N[C@@H](CC(C)C)C(=O)N[C@@H](CCC(=O)O)C(=O)N[C@@H](CC(C)C)C(=O)N[C@@H](CC(C)C)C(=O)N[C@@H](CC(C)C)C(=O)N[C@@H](CCSC)C(=O)N[C@@H](CO)C(=O)N[C@H](C(=O)N[C@@H](CCC(=O)O)C(=O)N[C@@H](CC(N)=O)C(=O)N[C@@H](CCC(=O)O)C(=O)N[C@@H](CC(C)C)C(=O)N[C@@H](CCCCN)C(=O)NCC(=O)N[C@@H](CCC(N)=O)C(=O)N[C@@H](CCC(N)=O)C(=O)N[C@@H](C)C(=O)N[C@@H](CC(C)C)C(=O)N[C@@H](Cc1c[nH]c2ccccc12)C(N)=O)[C@@H](C)O
B2: E2A17 peptide, FITC labeled (peptide)
peptide: {FITC-βAla}-GTDKELSDLLDFSAMFS-NH2
SMILES: CSCC[C@H](NC(=O)[C@H](C)NC(=O)[C@H](CO)NC(=O)[C@H](Cc1ccccc1)NC(=O)[C@H](CC(=O)O)NC(=O)[C@H](CC(C)C)NC(=O)[C@H](CC(C)C)NC(=O)[C@H](CC(=O)O)NC(=O)[C@H](CO)NC(=O)[C@H](CC(C)C)NC(=O)[C@H](CCC(=O)O)NC(=O)[C@H](CCCCN)NC(=O)[C@H](CC(=O)O)NC(=O)[C@@H](NC(=O)CNC(=O)CCNC(=S)Nc1ccc2c(c1)C(=O)OC21c2ccc(O)cc2Oc2cc(O)ccc21)[C@@H](C)O)C(=O)N[C@@H](Cc1ccccc1)C(=O)N[C@@H](CO)C(N)=O

Tests used:
Test in all cases: cross-linking
[1] = molecular target: heat shock protein 70 (Hsp70), labeled with AlexaFluor488 (UniProt P0DMV8)
[2] = molecular target: T1, KIX domain of mouse CREB-binding protein (mouse, UniProt P45481 586-665)
[3] = molecular target: T1, KIX domain of mouse CREB-binding protein; remark: listed apart in the source

T1 sequence (P45481 586-665): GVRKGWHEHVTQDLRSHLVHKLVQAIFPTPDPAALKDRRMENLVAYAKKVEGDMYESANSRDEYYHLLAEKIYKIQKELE

Molecule	Kd [1] [nM]	also measured
bcl2 association athanogene 3 (Bag3) (from UniProt O95817 1-575) (natural protein)	26	–
heat shock protein 70 (Hsp70), labeled with AlexaFluor488 (from UniProt P0DMV8 1-641) (natural protein)	1200	–
B1	–	Kd [2]: 3100 ± 500 nM
B2	–	Kd [3]: 1100 ± 200 nM
